Source: article PMC12041213 (Nature Communications, 2025)
Substitutions are numbered along the chain they refer to.

Tests used:
Experiment in all cases: co-IP
[1] = molecular target: T1, His-Ash1 (purified recombinant) (S. cerevisiae, UniProt P34233 1-588)
T1 sequence (looked up): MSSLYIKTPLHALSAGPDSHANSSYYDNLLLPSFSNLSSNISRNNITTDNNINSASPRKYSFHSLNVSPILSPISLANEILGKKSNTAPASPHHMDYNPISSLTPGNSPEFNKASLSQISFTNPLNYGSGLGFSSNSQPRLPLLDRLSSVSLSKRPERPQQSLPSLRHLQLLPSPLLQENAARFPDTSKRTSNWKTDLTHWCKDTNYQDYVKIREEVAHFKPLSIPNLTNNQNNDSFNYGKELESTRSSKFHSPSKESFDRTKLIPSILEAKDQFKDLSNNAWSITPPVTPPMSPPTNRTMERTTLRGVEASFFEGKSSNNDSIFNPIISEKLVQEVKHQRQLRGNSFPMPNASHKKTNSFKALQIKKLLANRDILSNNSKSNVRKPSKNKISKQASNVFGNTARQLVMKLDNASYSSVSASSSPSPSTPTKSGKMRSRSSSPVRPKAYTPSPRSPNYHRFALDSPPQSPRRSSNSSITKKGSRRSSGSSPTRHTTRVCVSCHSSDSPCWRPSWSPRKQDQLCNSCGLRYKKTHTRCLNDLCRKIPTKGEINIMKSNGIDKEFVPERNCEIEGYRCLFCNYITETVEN

[2] = molecular target: T2, His-Ash1 phosphorylated by Tpk2-CBP (S. cerevisiae, UniProt P34233 1-588, phosphorylated by Tpk2-CBP at S149 and S388)
T2 sequence (looked up): T1 sequence (looked up)

[3] = molecular target: T3, His-Ash1-2SA (Ash1-S149A S388A) (S. cerevisiae, UniProt P34233 1-588, S149A | S388A)
T3 sequence (looked up): T1 sequence (looked up) with S149A, S388A

- binding result [1]: binds
- binding result [2]: binds
- binding result [3]: binds
B1: Ubp8-FLAG (purified recombinant) (enzyme, S. cerevisiae, UniProt P50102 1-471, looked up)
chain: MSICPHIQQVFQNEKSKDGVLKTCNAARYILNHSVPKEKFLNTMKCGTCHEINSGATFMCLQCGFCGCWNHSHFLSHSKQIGHIFGINSNNGLLFCFKCEDYIGNIDLINDAILAKYWDDVCTKTMVPSMERRDGLSGLINMGSTCFMSSILQCLIHNPYFIRHSMSQIHSNNCKVRSPDKCFSCALDKIVHELYGALNTKQASSSSTSTNRQTGFIYLLTCAWKINQNLAGYSQQDAHEFWQFIINQIHQSYVLDLPNAKEVSRANNKQCECIVHTVFEGSLESSIVCPGCQNNSKTTIDPFLDLSLDIKDKKKLYECLDSFHKKEQLKDFNYHCGECNSTQDAIKQLGIHKLPSVLVLQLKRFEHLLNGSNRKLDDFIEFPTYLNMKNYCSTKEKDKHSENGKVPDIIYELIGIVSHKGTVNEGHYIAFCKISGGQWFKFNDSMVSSISQEEVLKEQAYLLFYTIRQVN
